Data from paper PMC8315086 (2021).

How the values were obtained:
[1] = biological target: SARS-CoV-2 S1-His protein (SARS-CoV-2); experiment: ELISA
WT RBD-His = WT RBD-His (SARS-CoV-2, UniProt P0DTC2); experiment: ELISA

B1: 2B11 monoclonal antibody (full-length human IgG1) (antibody, V domains shown)
VH: EVQLVESGGGLVQPGGSLRLSCAASEITVSSNYMNWVRQAPGKGLEWVSVIYSGGTTYYADSVKGRFTISRDNSENTLYLQMNSLRAEDTAVYYCARDLMEVGGMDVWGQGTTVTVSS
VL: LPVLTQPPSASGTPGQRVTISCSGSSSNVENDNVNWFQQQVPGSTPKLVIYNDRLRPSGVPDRFSGSKSGTSAYLAISGLQSEDEADYYCVAWDASLQSYVFGTGTKVTVL
- IC50 [1]: 0.383 mg/L
- IC50 (WT RBD-His): 0.589 mg/L
